Measurements from patent publication US20040203128A1 (GENSET S A, published 2004).

Biological target: GST protein (negative control, from pGEX2TK) (UniProt P08515 1-218 = GST)
Test: solid phase overlay assay, 32P-labeled GST-PPP2R2C probe on blotted protein
Experimental: After 4.5 hr of incubation, the membrane was washed with Hyb75 buffer, 1 mM DTT, 1% (w/v) non-fat dry milk three times for 15 min at room temperature. The blots were analyzed by autoradiography.

GST protein (negative control, from pGEX2TK), sequence (P08515 whole entry): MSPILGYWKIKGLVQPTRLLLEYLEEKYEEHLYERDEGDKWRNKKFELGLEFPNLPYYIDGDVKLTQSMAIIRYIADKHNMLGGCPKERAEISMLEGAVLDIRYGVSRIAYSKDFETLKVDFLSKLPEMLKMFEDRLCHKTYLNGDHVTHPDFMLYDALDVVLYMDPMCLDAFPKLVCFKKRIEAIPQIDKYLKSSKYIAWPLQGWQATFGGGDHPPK

B1: GST-PPP2R2C radiolabeled recombinant protein (other)
chain: GEDTDTRKINHSFLRDHSYVTEADIISTVEFNHTGELLATGDKGGRVVIFQREPESKNAPHSQGDYDVYSTFQSHEPEFDYLKSLEIEEKINKIKWLPQQNAAHSLLSTNDKTIKLWKITERDKRPEGYNLKDEEGKLKDLSTVTSLQVPVLKPMDLMVEVSPRRIFANGHTYHINSISVNSDCETYMSADDLRINLWHLAITDRSFNIVDIKPANMEDLTEVITASEFHPHHCNLFVYSSSKGSLRLCDMPAAALCDKHSKLFEEPEDPSNRSFFSEIISSVSDVKFSHSDRYMLTRDYLTVKVWDLNMEARPIETYQVHDYLRSKLCSLYENDCIFDKFECAWNGSDSVIMTGAYNNFFRMFDRNTKRDVTLEASRESSKPRAVLKPRRVCVGGKRRRDDISVDSLDFTKKILHTAWHPAENIIAIAATNNLYIFQDKVNSDMH
modifications: 32P-phosphorylated in vitro with PKA and [32P]-γATP (site not stated)
notes: Insert is nucleotides 55-1540 of AF086924 (the bait construct starts at 52), so the first codon may be missing; also called PP2A/Bγ; protein encoded by pGEX-2TK-PPP2R2C; not shown: glutathione S-transferase encoded by the pGEX-2TK vector (Amersham Pharmacia Biotech)
- binding result: no binding (tested: 100 ng, 10 ng and 0.1 ng of GST loaded)
